Biological target: T1, human FcεRIα (alpha chain of the high affinity IgE receptor FcεRI) (human, UniProt P12319 26-257)
T1 construct: whole, on cells; also called huFcεRIα; hu FcεRIα
T1 sequence (looked up): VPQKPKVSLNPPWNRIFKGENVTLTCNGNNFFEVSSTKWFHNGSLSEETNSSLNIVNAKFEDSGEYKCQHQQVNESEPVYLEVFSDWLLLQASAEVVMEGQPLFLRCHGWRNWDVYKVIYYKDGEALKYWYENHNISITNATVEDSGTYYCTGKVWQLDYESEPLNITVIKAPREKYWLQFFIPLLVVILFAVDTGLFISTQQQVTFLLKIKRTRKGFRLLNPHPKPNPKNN
Assay: not described

- binding result: binds
B1: IE7 anti-huFcεRIα mAb (mouse IgG1, hybridoma ATCC PTA-125115) (antibody, V domains shown)
VH: QVQLQESGGDVVKPGGSLKLSCAASGFTFSFYGMSWVRQTPDKKLEWVATISGGGNYTYYPDSVKGRFTISRDNAMNTLYLQMNSLKSEDTAMYYCVRAYYGNWNSYWGQGTLVTVS
VL: DIVMTQTPSSMYASLGERVTITCKASQDINNYLSWFQQKPGRSPKTLIYRANRLMDGVPSRIRGSGSGQDYSLTISSLEYEDMGIYYCLLYNEFPWMFGGGTKLEIKR
notes: Original hybridoma antibody, mouse IgG1; also called mAb IE7
